According to patent publication US10982244B2, “Modified homoserine dehydrogenase and method for producing homoserine or L-amino acid derived from homoserine using the same” (CJ CHEILJEDANG CORPORATION, priority 2018, dated 2021):

Biological target: T1, homoserine dehydrogenase (Hom) (Corynebacterium glutamicum, UniProt P08499, R407H)
T1 construct: each supernatant was recovered through two centrifugations (13,000 rpm, 4° C., 30 minutes) and used as a crude extract for measuring the activity of Hom; endogenous in cells; host or cells: Crude cell extracts of Corynebacterium glutamicum ATCC13032 (wild type) and of CA09-0900 (ATCC13032 with chromosomal hom R407H)
Assay: Measurement of Hom activity (U) and desensitization by L-threonine in crude extracts
Format: biochemical
Settings: 10 mM L-threonine, compared with wild-type Hom
Procedure: The activity of the enzyme Hom was measured in the prepared strain. The wild-type strain ATCC13032 (the control group) and the CA09-0900 strain prepared in Example 4 were each inoculated into 25 mL of the seed medium and cultured until the strains reached the late log phase. The cells of each strain were recovered by centrifugation, washed twice with a 0.1 M potassium phosphate buffer (pH 7.6), and finally suspended in 2 mL of the same buffer containing glycerol at a concentration of 30%. Each cell suspension was physically disrupted by a conventional glass bead vortexing method for 10 minutes, and each supernatant was recovered through two centrifugations (13,000 rpm, 4° C., 30 minutes) and used as a crude extract for measuring the activity of Hom. For the measurement of the activity of Hom, a […] (0.1 mL) was added to a reaction solution for measuring the enzyme activity (a potassium phosphate (pH 7.0) buffer, 25 mM NADPH, 5 mM aspartate semi-aldehyde) and reacted at 30° C. The Hom enzyme activity U was defined as the number of NADPH consumed per minute according to the presence of L-threonine (0 mM, 10 mM), and the measurement results of the enzyme activity are shown in Table 2 below.

B1: Hom including the R407H modification: modified homoserine dehydrogenase, arginine at position 407 substituted with histidine (protein)
chain: MTSASAPSFNPGKGPGSAVGIALLGFGTVGTEVMRLMTEYGDELAHRIGGPLEVRGIAVSDISKPREGVAPELLTEDAFALIEREDVDIVVEVIGGIEYPREVVLAALKAGKSVVTANKALVAAHSAELADAAEAANVDLYFEAAVAGAIPVVGPLRRSLAGDQIQSVMGIVNGTTNFILDAMDSTGADYADSLAEATRLGYAEADPTADVEGHDAASKAAILASIAFHTRVTADDVYCEGISNISAADIEAAQQAGHTIKLLAICEKFTNKEGKSAISARVHPTLLPVSHPLASVNKSFNAIFVEAEAAGRLMFYGNGAGGAPTASAVLGDVVGAARNKVHGGRAPGESTYANLPIADFGETTTRYHLDMDVEDRVGVLAELASLFSEQGISLRTIRQEERDDDAHLIVVTHSALESDLSRTVELLKAKPVVKAINSVIRLERD
modifications: homoserine dehydrogenase R407H
notes: modified homoserine dehydrogenase, arginine at position 407 substituted with histidine
  desensitization to L-threonine: the inhibition of the activity was reduced
